± gives the standard error. For part of these data: Variants at the floor of the assay were thinned out.
B1: glmS ribozyme (parent)
chain: AUAAAAGCGCCAGAACUACAGAAAUGUAGUUGACGAGGAGGAGGUUUAUCGAAUUUUCGGCGGAUGCCUCCAAA

Tests used:
Conditions in all cases: with glucosamine-6-phosphate
glucosamine-6-phosphate [1] = variants of: B1; experiment: kcat; higher = faster cleavage; RNA array
Summary of the method: (§1)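 Weighted Michaelis–Menten fits across concentrations supplied kcat and KM, based on kobs from one- or two-exponential decay fits to normalised per-tile medians. The data came from barcoded ribozyme variants transcribed in situ by E. coli RNA polymerase on sequenced MiSeq chips and tracked at 37 °C by a hybridised Cy3 probe. Glucosamine-6-phosphate (40 μM to 10 mM) in HEPES/KCl/Mg(OAc)2 buffer was flowed in.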

glucosamine-6-phosphate [2] = variants of: B1; experiment: KM; higher = weaker cofactor use; RNA array
Summary of the method: as §1

glucosamine-6-phosphate [3] = variants of: B1; experiment: self-cleavage kobs at 640 uM GlcN6P; higher = faster cleavage; RNA array
Summary of the method: as §1

glucosamine-6-phosphate [4] = variants of: B1; experiment: self-cleavage kobs at 2500 uM GlcN6P; higher = faster cleavage; RNA array
Summary of the method: as §1

glucosamine-6-phosphate [5] = variants of: B1; experiment: self-cleavage kobs at 10000 uM GlcN6P; higher = faster cleavage; RNA array
Summary of the method: as §1

glucosamine-6-phosphate [6] = variants of: B1; experiment: self-cleavage kobs at 40 uM GlcN6P; higher = faster cleavage; RNA array
Summary of the method: as §1

glucosamine-6-phosphate [7] = variants of: B1; experiment: self-cleavage kobs at 160 uM GlcN6P; higher = faster cleavage; RNA array
Summary of the method: as §1

Variant | kcat (glucosamine-6-phosphate [1]) | KM (glucosamine-6-phosphate [2]) | self-cleavage kobs at 640 uM GlcN6P (glucosamine-6-phosphate [3]) | self-cleavage kobs at 2500 uM GlcN6P (glucosamine-6-phosphate [4]) | self-cleavage kobs at 10000 uM GlcN6P (glucosamine-6-phosphate [5]) | self-cleavage kobs at 40 uM GlcN6P (glucosamine-6-phosphate [6]) | self-cleavage kobs at 160 uM GlcN6P (glucosamine-6-phosphate [7])
A12G A14C | 0.000175 ± 3.9e-06 s⁻¹ | 2970 ± 160 µM | 3.2e-05 ± 7.2e-06 s⁻¹ | 7.78e-05 ± 1.1e-05 s⁻¹ | 0.000135 ± 1.1e-05 s⁻¹ | – | –
A15G A53C | 0.00857 ± 0.0011 s⁻¹ | 1860 ± 340 µM | 0.00195 ± 0.00035 s⁻¹ | 0.00522 ± 0.0012 s⁻¹ | 0.00742 ± 0.0015 s⁻¹ | 0.000205 ± 3.7e-05 s⁻¹ | 0.000653 ± 0.00021 s⁻¹
A33G G35A G37A C71U | 1.55e-05 ± 4.5e-06 s⁻¹ | – | – | – | – | – | –
A14G U49G | 0.00278 ± 0.00095 s⁻¹ | – | 0.000937 ± 0.00022 s⁻¹ | 0.00109 ± 0.0003 s⁻¹ | 0.00302 ± 0.00044 s⁻¹ | 7.8e-05 ± 1.6e-05 s⁻¹ | –
G63U C68A | 1.22e-05 ± 2.6e-06 s⁻¹ | – | – | – | – | – | –
U54A G59A | 6.69e-05 ± 7.1e-06 s⁻¹ | 4220 ± 1300 µM | – | – | 4.72e-05 ± 7.4e-06 s⁻¹ | – | –
G40A C70U | 0.000518 ± 0.0001 s⁻¹ | 165 ± 58 µM | – | 0.000417 ± 0.00011 s⁻¹ | 0.000752 ± 0.00019 s⁻¹ | 0.000102 ± 1.8e-05 s⁻¹ | –
G37C C68U | 1.59e-05 ± 1.1e-06 s⁻¹ | – | – | – | – | < 1e-05 s⁻¹ | –
G40U U46C | 0.00175 ± 0.00024 s⁻¹ | 2420 ± 530 µM | 0.000365 ± 5e-05 s⁻¹ | 0.000971 ± 0.00014 s⁻¹ | 0.00137 ± 0.00016 s⁻¹ | 4.23e-05 ± 1.1e-05 s⁻¹ | 9.14e-05 ± 1.9e-05 s⁻¹
